Source: patent US20130108641A1 (Sanofi, published 2013)

T1: human GITR expressed on cells (human, UniProt Q9Y5U5 26-241)
T1 construct: whole, on cells; Used for HEK293 transfectants and for PHA-stimulated human PBMCs; also called hGITR; cell surface hGITR
T1 sequence (looked up): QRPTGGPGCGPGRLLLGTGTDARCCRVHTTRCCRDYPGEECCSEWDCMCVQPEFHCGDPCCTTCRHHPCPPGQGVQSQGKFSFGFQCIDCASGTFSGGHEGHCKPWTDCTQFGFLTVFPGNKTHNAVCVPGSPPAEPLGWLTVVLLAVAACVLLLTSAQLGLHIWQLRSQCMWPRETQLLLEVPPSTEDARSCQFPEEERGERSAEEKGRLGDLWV

T2: human GITR-Fc fusion protein (human, UniProt Q9Y5U5 26-162)
T2 construct: extracellular domain; also called hGITR-Fc; recombinant human GITR-Fc; not shown: Fc part
T2 sequence (looked up): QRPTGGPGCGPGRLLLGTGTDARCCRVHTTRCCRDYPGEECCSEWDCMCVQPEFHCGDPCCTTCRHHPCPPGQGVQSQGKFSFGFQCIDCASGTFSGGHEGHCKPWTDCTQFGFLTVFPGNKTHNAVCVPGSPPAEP


Key:
[1] = molecular target: T3, cynomolgus monkey GITR-Fc (cynomolgus monkey); assay: SPR; KD on cGITR-Fc over KD on hGITR-Fc
T3 construct: extracellular domain; also called cGITR-FC; cGITR
Experimental: (§1) The binding kinetics of several anti-GITR antibodies to recombinant human GITR (hGITR) and cynomolgus monkey GITR (cGITR) were determined by surface plasmon resonance assay using a BIAcore 2000 (BIAcore Inc., […].). Briefly, a CM5 BIAcore biosensor chip was docked into the instrument and activated with 250 μL of 1:1 NHS/EDC at room temperature. A rabbit anti-mouse Fc IgG1 mAb (BIAcore #BR-1005-14) (13.5 μg/mL in 0.05M acetate buffer, pH 5) was immobilized on the activated chips in Flow cell 1. The immobilization was carried out at a flow rate of 5 μL/min. The chip was then blocked by injection of 55 μL of ethanolamine-HCl, pH 8.5, followed by five washes with 50 mM NaOH, 1M NaCl. To measure the binding of anti-GITR mabs to the human GITR protein or cyno GITR protein, antibodies were used at 2 μg/mL in BIAcore running buffer (HBS-EP). Antigens (human GITR or cyno GITR) were injected from 3 to 1000 nM. Following completion of the injection phase, dissociation was monitored in a BIAcore running buffer at the same flow rate for 360 sec. The surface was regenerated between injections using 30 μL of 50 mM NaOH-1 M NaCl. Individual sensorgrams were analyzed using […].

[2] = molecular target: T1, human GITR expressed on cells; assay: Meso Scale assay, Sulfo-conjugated antibody on coated HEK293-Trex-hGITR cells
Experimental: The binding kinetics of anti-GITR antibodies to hGITR expressed on the surface of HEK293 cells were determined by Meso Scale assay. HEK293-Trex-hGITR cells (#2404) were coated at 25000 cells/well on a 96-well High Bind plate (MSD L15XB-3) for 2 hours at room temperature. Wells were washed 2 times with 150 μl/well of PBS and blocked with 150 μl/well of blocking solution for 30 min at room temperature. Following two washes with 150 μl/well of PBS, 25 μL/well of Sulfo-conjugated antibodies were added in 2-fold serial dilutions starting at 100 μg/ml up to 12 dilutions in assay diluent and incubated for 45 min at room temperature followed by two washes with PBS. The antibody binding was evaluated by adding 150 μl/well 1× Read buffer T without surfactant and read using the Mesoscale instrument.

[3] = molecular target: T2, human GITR-Fc fusion protein; assay: competition ELISA, GITRL coated, GITR-Fc 0.25 µg/mL pre-incubated with antibody
Experimental: The ability of anti-GITR antibodies to inhibit the binding of human GITRL to hGITR was assessed using a competition ELISA. Ninety-six well plates were coated with GITR-Ligand protein at 0.5 μg/well at 4° C., overnight. Wells were washed with washing buffer (PBS pH 7.4+0.05 Tween 20) and blocked with 200 μL of blocking buffer (PBS pH 7.4+0.05% Tween 20+1% BSA) for 1 hour at room temperature. Wells were then washed two times with washing buffer and exposed to 100 μL of pre-incubated mixtures of GITR-Fc at 0.25 μg/mL plus anti-GITR antibody in 2-fold serial dilutions starting at 10 μg/ml up to 12 dilutions for 1 hour at room temperature with agitation. Plates were washed four times with washing buffer and GITR-Ligand-bound recombinant human GITR-Fc was detected with the use of peroxidase-conjugated goat anti-human IgG-Fc (Sigma), followed by incubation with the TMB substrate (Interchim)
All antibodies generated using the methods disclosed herein were able to antagonize the binding of GITRL to GITR more potently than the prior art MAB689 antibody.

[4] = molecular target: T1, human GITR expressed on cells; assay: FACS, Alexa488-labeled antibody on PHA-stimulated human PBMCs
Experimental: (§2) Specifically, human or cynomolgus monkey peripheral blood mononuclear cells were isloated and diluted to 2×10^6/ml in RPMI-1640 medium containing 10% FBS. The cells were then stimulated with 5 ug/ml phytohaemagglutinin (PHA) for 72 hours in 6 well plates. […] The cells were then washed 2 times with FACS stain buffer (Becton Dickinson) and then co-stained with 50 ul of CD4-APC for 20 minutes in the dark at 4° C. The cells were then washed again 2 times with FACS stain buffer before being resuspended in 150 μL of FACS stain buffer (Becton Dickinson) and analyzed using a FACS Calibur instrument. from which binding curves were generated. Equilibrium dissociation constants (KD) for each antibody were determined from the binding curves.

[5] = molecular target: T3, cynomolgus monkey GITR-Fc; assay: SPR (BIAcore 2000), mAb captured on anti-mouse Fc, antigen injected
Experimental: as §1

[6] = molecular target: T2, human GITR-Fc fusion protein; assay: as above
Experimental: as §1

[7] = molecular target: T4, cynomolgus monkey GITR on PBMCs (cynomolgus monkey); assay: FACS, Alexa488-labeled antibody on PHA-stimulated cynomolgus monkey PBMCs
T4 construct: whole, on cells; also called cynoGITR-expressing PBMCs
Experimental: as §2

[8] = molecular target: T1, human GITR expressed on cells; assay: cell-based or functional assay

| Ratio cKD/hKD [1] | Kd [2] | IC50 [3] | Kd [4] | Kd [5] | koff [5] | Kd [6] | koff [6] | Kd [7] | IC50 of dose-dependent inhibition of NFkB signal transduction (luciferase reporter) [8] | Binder |
| --- | --- | --- | --- | --- | --- | --- | --- | --- | --- | --- |
| 1.3 | 0.857 nM | 1.02 nM | 4.13 nM | 3.35 nM | 0.000345 s⁻¹ | 2.57 nM | 0.00038 s⁻¹ |  |  | anti-GITR antibody clone 1718 (antibody, V domains shown, Murine hybridoma antibody; also called 1718-GITR2; 1718 GITR-2) VH: QVQVQQSGPELVKPGASVRISCKASDYTFTNYYIHWVRQRPGQGLEWLGWIYPGKGYTNYNEKFKGKATLTADKSSSTAYMQFSSLTSEDSAVYFCASGYGNYYFPYWGQGTLVTVSA VL: IQMTQSSSYLSVSLGGRVTITCKASDHIKNWLAWYQQKPGNVPRLLMSAATSLETGFPSRFSGSGSGKDFTLTITSLQTEDVATYYCQQYWSTPWTFGGGTKLEIK |
| 2.3 | 0.35 nM | 0.96 nM | 0.476 nM | 2.27 nM | 0.00123 s⁻¹ | 0.99 nM | 0.000508 s⁻¹ | 0.353 nM | 0.15 nM | anti-GITR antibody clone 2155 (murine) (antibody, V domains shown, Murine hybridoma antibody) VH: EVKLVESGGGLVKPGGSLKLSCGASGFTISSYAMSWVRQSPEKRLEWVAIISTGGSTYYPDSVRGRFTISRDNARNSLYLQMSSLRSEDTAMYYCARVGGYYDSMDHWGQGTSVTVSS VL: not shown |
| 5.3 | 7.24 nM | 2.82 nM |  | 31.8 nM | 0.000662 s⁻¹ | 5.95 nM | 0.000221 s⁻¹ |  |  | anti-GITR antibody clone 706 (antibody, V domains shown, Murine hybridoma antibody; also called 706-GITR2; 706 GITR-2) VH: EVQLQQSGTVLARPGASVKMSCEASGYSFTTYWMHWIKQRPGQGLEWIGAIYPGNSDTGYNQKFKGKAKLTAVTSASTAYMELSSLTNEDSAVYYCTRTSTYPHFDYWGQGTTLTVSS VL: DILLTQSPAILSVSPGERVSFSCRASQSIGTSIHWYQQRTNGSPRLLIKYASESISGIPSRFSGSGSGTDFTLNINSVESEDIADYYCQQTNNWPLTFGAGTKLELK |
| 5.5 | 6.8 nM | 1.9 nM |  | 36.8 nM | 0.000707 s⁻¹ | 6.67 nM | 0.000224 s⁻¹ |  |  | anti-GITR antibody clone 698 (antibody, V domains shown, Murine hybridoma antibody; also called 698-GITR2; 698 GITR-2) VH: EVQLQQSGTVLARPGASVKMSCEASGYSFTTYWMHWIKQRPGQGLEWIGAIYPGNSDTGYNQKFKGKAKLTAVTSATTAYMELSSLTDEDSAVYYCTRTSTYPHFDYWGQGTTLTVSS VL: DILLTQSPAILSVSPGERVSFSCRASQSIGTSIHWYQQRTNGSPRLLIKYASESISGIPSRFSGSGSGTDFTLNINSVESEDIADYYCQQSNNWPLTFGAGTKLELK |
| 4.7 | 4.44 nM | 2.5 nM |  | 20.9 nM | 0.000473 s⁻¹ | 4.43 nM | 0.000177 s⁻¹ |  |  | anti-GITR antibody clone 827 (antibody, V domains shown, Murine hybridoma antibody; also called 827-GITR2; 827 GITR-2) VH: EVQLQQSGTVLARPGASVKMSCETSGYSFTTYWIHWIKQRPGQGLEWIATIYPGNSDAGYNQKFRGKAKLTAVTSASTAYMELSSLTNEDSAVYYCTRSSTYPHFDYWGQGTTLTVSS VL: DILLTQSPAILSVSPGERVSFSCRASQSIGTSIHWYQQRTNDSPRLLIKYASESISGIPSRFSGSGSGTDFTLNINSVESEDIADYYCQQTNNWPLTFGAGTKLELK |
| 5.3 | 5.38 nM | 3.76 nM |  | 9.68 nM | 0.00021 s⁻¹ | 1.84 nM | 7.44e-05 s⁻¹ |  |  | anti-GITR antibody clone 1649 (antibody, V domains shown, Murine hybridoma antibody; also called 1649-GITR2; 1649 GITR-2) VH: EVQLQQSGTVLAGPGTSVKMSCEASGYSFTTYWIHWIKQRPGQGLEWIGAIYPGNSDAGYNQKFKGKAKLTAVTSASTAYMELSSLTNEDSAVYYCTRSSTYPHFDYWGQGTTLTVSS VL: DILLTQSPAILSVSPGERVSFSCRASQSIGTSIHWYQQRTNDSPRLLIKYASESISGIPSRFSGSGSGTDFTLNINSVESEDIADYYCQQTNNWPLTFGAGTKLELK |
